One molecule from patent publication US20130224854A1 (NIPPON KAYAKU, published 2013) can be followed below.

In this test the target is T1, single-chain type IV collagen alpha1 polypeptide (human) (human, UniProt P02462 173-1669, lower proportion of hydroxylated proline and hydroxylated lysine residues than type IV collagen; carries a sugar chain recognized by ABA lectin (positions not given)).
T1 construct: mature; Secreted by human cancer cells (HLF, UO31, Lu65A); also called single-chain type IV collagen polypeptide; single-chain COL4
T1 sequence (P02462 173-1669): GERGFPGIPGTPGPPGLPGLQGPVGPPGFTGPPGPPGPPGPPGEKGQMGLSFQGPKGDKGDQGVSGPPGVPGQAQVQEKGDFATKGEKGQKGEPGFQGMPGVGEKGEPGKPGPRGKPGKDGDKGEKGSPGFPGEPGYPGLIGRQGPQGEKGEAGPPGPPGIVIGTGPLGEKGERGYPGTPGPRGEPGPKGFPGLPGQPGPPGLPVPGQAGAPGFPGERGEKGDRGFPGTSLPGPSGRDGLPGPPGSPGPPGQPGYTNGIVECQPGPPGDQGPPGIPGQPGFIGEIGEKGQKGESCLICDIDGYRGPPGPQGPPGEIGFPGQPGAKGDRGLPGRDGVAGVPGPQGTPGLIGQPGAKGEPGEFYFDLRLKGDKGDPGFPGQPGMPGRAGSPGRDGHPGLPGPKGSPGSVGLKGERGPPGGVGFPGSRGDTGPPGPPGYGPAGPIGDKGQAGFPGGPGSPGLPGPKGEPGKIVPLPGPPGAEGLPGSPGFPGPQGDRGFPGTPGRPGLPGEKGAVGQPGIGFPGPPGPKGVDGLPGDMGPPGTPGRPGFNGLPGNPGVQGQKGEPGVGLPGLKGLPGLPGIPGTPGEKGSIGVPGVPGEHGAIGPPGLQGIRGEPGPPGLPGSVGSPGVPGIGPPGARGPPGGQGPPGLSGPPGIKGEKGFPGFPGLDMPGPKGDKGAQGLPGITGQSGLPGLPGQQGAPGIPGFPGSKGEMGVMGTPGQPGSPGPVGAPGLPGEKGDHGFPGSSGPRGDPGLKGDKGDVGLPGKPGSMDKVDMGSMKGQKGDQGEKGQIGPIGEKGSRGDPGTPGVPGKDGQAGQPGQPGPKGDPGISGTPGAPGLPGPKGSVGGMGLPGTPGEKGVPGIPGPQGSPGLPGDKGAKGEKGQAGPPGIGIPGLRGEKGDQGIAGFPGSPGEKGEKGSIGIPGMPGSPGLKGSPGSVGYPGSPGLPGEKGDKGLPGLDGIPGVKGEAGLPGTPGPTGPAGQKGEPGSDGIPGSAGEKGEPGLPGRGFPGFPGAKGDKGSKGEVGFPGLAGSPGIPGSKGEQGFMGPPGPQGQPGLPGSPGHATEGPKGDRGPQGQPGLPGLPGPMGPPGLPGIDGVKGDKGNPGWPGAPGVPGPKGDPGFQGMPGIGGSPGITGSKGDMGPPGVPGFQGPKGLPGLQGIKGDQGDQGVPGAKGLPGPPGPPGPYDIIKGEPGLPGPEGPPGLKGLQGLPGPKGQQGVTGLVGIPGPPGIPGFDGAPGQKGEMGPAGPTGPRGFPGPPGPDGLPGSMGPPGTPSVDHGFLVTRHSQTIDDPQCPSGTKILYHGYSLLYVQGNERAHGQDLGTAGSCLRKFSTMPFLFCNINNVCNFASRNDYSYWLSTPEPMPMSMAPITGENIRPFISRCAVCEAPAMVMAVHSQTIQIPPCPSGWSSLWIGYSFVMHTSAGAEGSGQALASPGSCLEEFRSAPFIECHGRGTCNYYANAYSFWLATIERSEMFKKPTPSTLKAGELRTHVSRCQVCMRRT
In words: competition ELISA at equilibrium in solution (method of Djavadi-Ohaniance), free antibody measured on immobilized antigen. As to the method: The dissociation constant of the purified monoclonal antibody NK46141 was determined by ELISA with reference to the method of Djavadi-Ohaniance L. et al. [Djavadi-Ohaniance L., et al., (1996) In Antibody Engineering (Eds.: McCafferty J., et al.), Chapter 4, pp. 77-97., IRL Press, Oxford.].
In brief, Immunoplate (Nunc; manufactured by Thermo Fisher Scientific Inc.) with the single-chain type IV collagen al polypeptide (antigen) immobilized thereon in advance was prepared. Meanwhile, JK132 and NK46141 having a constant concentration (0.10 μg/ml) were each incubated with varying concentrations of the antigen for a sufficient time until reaching equilibrium. This incubation solution was added to the ELISA wells to determine the amount of free antibodies. Since the antigen-antibody reaction follows the law of mass action, measured values were applied to formula 1 below. X and Y in formula 2 below were determined, and a graph was drawn to determine the dissociation constant from the slope (1/Kd).

B1: monoclonal antibody NK46141 (antibody, V domains shown)
VH: EVQLVESGGGLVKPGGSLKLSCAASGFTFTDYYMYWVRQTPEKRLEWVATISEGGSYTYYPDSVKGRFTISRDNAKNNLYLQMSSLKSEDTAMYYCASPYYGDGGFAYWGQGTLVTVSA
VL: DVLMTQTPLSLPVSLGDQASISCRSSQSIVHSDGNTYLEWYLQKPGQSPRLLIYKVSNRFSGVPDRFSGSGSGTDFTLKISRVEAEDLGVYYCFQGSHVPPTFGGGTKLEIKR
notes: also called anti-single-chain type IV collagen polypeptide antibody; Anti NK-Antigen monoclonal antibody #141
In the case of B1, the affinity, expressed as Kd, was 34 nM.
